This passage reports ratio to parent results from paper PMC12516561 (2025).

Sequences and labels used below:
B1: iRhom2 wild type (HA-tagged) [human] / 14-3-3 epsilon, endogenous [human (endogenous in HEK293T)] (parent)
chain 1: MASADKNGGSVSSVSSSRLQSRKPPNLSITIPPPEKETQAPGEQDSMLPEGFQNRRLKKSQPRTWAAHTTACPPSFLPKRKNPAYLKSVSLQEPRSRWQESSEKRPGFRRQASLSQSIRKGAAQWFGVSGDWEGQRQQWQRRSLHHCSMRYGRLKASCQRDLELPSQEAPSFQGTESPKPCKMPKIVDPLARGRAFRHPEEMDRPHAPHPPLTPGVLSLTSFTSVRSGYSHLPRRKRMSVAHMSLQAAAALLKGRSVLDATGQRCRVVKRSFAFPSFLEEDVVDGADTFDSSFFSKEEMSSMPDDVFESPPLSASYFRGIPHSASPVSPDGVQIPLKEYGRAPVPGPRRGKRIASKVKHFAFDRKKRHYGLGVVGNWLNRSYRRSISSTVQRQLESFDSHRPYFTYWLTFVHVIITLLVICTYGIAPVGFAQHVTTQLVLRNKGVYESVKYIQQENFWVGPSSIDLIHLGAKFSPCIRKDGQIEQLVLRERDLERDSGCCVQNDHSGCIQTQRKDCSETLATFVKWQDDTGPPMDKSDLGQKRTSGAVCHQDPRTCEEPASSGAHIWPDDITKWPICTEQARSNHTGFLHMDCEIKGRPCCIGTKGSCEITTREYCEFMHGYFHEEATLCSQVHCLDKVCGLLPFLNPEVPDQFYRLWLSLFLHAGVVHCLVSVVFQMTILRDLEKLAGWHRIAIIFILSGITGNLASAIFLPYRAEVGPAGSQFGLLACLFVELFQSWPLLERPWKAFLNLSAIVLFLFICGLLPWIDNIAHIFGFLSGLLLAFAFLPYITFGTSDKYRKRALILVSLLAFAGLFAALVLWLYIYPINWPWIEHLTCFPFTSRFCEKYELDQVLH
chain 2: MDDREDLVYQAKLAEQAERYDEMVESMKKVAGMDVELTVEERNLLSVAYKNVIGARRASWRIISSIEQKEENKGGEDKLKMIREYRQMVETELKLICCDILDVLDKHLIPAANTGESKVFYYKMKGDYHRYLAEFATGNDRKEAAENSLVAYKAASDIAMTELPPTHPIRLGLALNFSVFYYEILNSPDRACRLAKAAFDDAIAELDTLSEESYKDSTLIMQLLRDNLTLWTSDMQGDGEEQNKEALQDVEDENQ
B2: iRhom2 wild type (HA-tagged) [human] / beta-COP, endogenous [human (endogenous in HEK293T)] (parent)
chain 1: B1 chain 1
chain 2: MTAAENVCYTLINVPMDSEPPSEISLKNDLEKGDVKSKTEALKKVIIMILNGEKLPGLLMTIIRFVLPLQDHTIKKLLLVFWEIVPKTTPDGRLLHEMILVCDAYRKDLQHPNEFIRGSTLRFLCKLKEAELLEPLMPAIRACLEHRHSYVRRNAVLAIYTIYRNFEHLIPDAPELIHDFLVNEKDASCKRNAFMMLIHADQDRALDYLSTCIDQVQTFGDILQLVIVELIYKVCHANPSERARFIRCIYNLLQSSSPAVKYEAAGTLVTLSSAPTAIKAAAQCYIDLIIKESDNNVKLIVLDRLIELKEHPAHERVLQDLVMDILRVLSTPDLEVRKKTLQLALDLVSSRNVEELVIVLKKEVIKTNNVSEHEDTDKYRQLLVRTLHSCSVRFPDMAANVIPVLMEFLSDNNEAAAADVLEFVREAIQRFDNLRMLIVEKMLEVFHAIKSVKIYRGALWILGEYCSTKEDIQSVMTEIRRSLGEIPIVESEIKKEAGELKPEEEITVGPVQKLVTEMGTYATQSALSSSRPTKKEEDRPPLRGFLLDGDFFVAASLATTLTKIALRYVALVQEKKKQNSFVAEAMLLMATILHLGKSSLPKKPITDDDVDRISLCLKVLSECSPLMNDIFNKECRQSLSHMLSAKLEEEKLSQKKESEKRNVTVQPDDPISFMQLTAKNEMNCKEDQFQLSLLAAMGNTQRKEAADPLASKLNKVTQLTGFSDPVYAEAYVHVNQYDIVLDVLVVNQTSDTLQNCTLELATLGDLKLVEKPSPLTLAPHDFANIKANVKVASTENGIIFGNIVYDVSGAASDRNCVVLSDIHIDIMDYIQPATCTDAEFRQMWAEFEWENKVTVNTNMVDLNDYLQHILKSTNMKCLTPEKALSGYCGFMAANLYARSIFGEDALANVSIEKPIHQGPDAAVTGHIRIRAKSQGMALSLGDKINLSQKKTSI

The first assay covers variants of B1. Kind of assay: co-immunoprecipitation (HA-IP) with western blot quantification. To be noted: with 14-3-3 epsilon, iRhom1/2 DKO HEK293T cells, three independent experiments, read off a plot. (A western blot detects proteins with antibodies after separation by electrophoresis.)
Take chain 1 P233A R234A R235A K236A R237A M238A S239A: the ratio to parent was 2.1. As for chain 1 S239A, the ratio to parent amounted to 0.92. With chain 1 P233A R234A R235A K236A R237A M238A, the ratio to parent turned out to be 1.3.

Variants of B2 are the subject of the next assay. The assay is described as above. To be noted: iRhom1/2 DKO HEK293T cells, three independent experiments, read off a plot.
With chain 1 S239A, the ratio to parent came to 0.98. As to chain 1 P233A R234A R235A K236A R237A M238A S239A, the ratio to parent was 1.05. Same read-out and setting: under chain 1 P233A R234A R235A K236A R237A M238A stands 1.15.
